Test results published in patent US20150258192A1, “COMPOSITIONS AND METHODS FOR PREVENTING OR TREATING CHRONIC LUNG ALLOGRAFT DYSFUNCTION (CLAD) AND IDIOPATHIC PULMONARY FIBROSIS (IPF)” (priority 2014, published 2015).
No end group written: not given here.

Assays:
Assay in all cases: Kinase Profiling Assay
Type in all cases: biochemical
Conditions in all cases: peptide 100 μM
[1] = molecular target: eEF-2K(h) (Homo sapiens, UniProt O00418)
Method in brief: (§1)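 Duplicate wells; [radiolabeled] ATP phosphate onto cationic substrate; filter capture (negatively charged membrane); scintillation count; % of 100% activity control. Selectivity screen of MK2 peptide inhibitors, 266 human kinases.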

[2] = molecular target: T1, PKCζ(h) (Homo sapiens, UniProt Q05513)
T1 sequence (Q05513 1-592): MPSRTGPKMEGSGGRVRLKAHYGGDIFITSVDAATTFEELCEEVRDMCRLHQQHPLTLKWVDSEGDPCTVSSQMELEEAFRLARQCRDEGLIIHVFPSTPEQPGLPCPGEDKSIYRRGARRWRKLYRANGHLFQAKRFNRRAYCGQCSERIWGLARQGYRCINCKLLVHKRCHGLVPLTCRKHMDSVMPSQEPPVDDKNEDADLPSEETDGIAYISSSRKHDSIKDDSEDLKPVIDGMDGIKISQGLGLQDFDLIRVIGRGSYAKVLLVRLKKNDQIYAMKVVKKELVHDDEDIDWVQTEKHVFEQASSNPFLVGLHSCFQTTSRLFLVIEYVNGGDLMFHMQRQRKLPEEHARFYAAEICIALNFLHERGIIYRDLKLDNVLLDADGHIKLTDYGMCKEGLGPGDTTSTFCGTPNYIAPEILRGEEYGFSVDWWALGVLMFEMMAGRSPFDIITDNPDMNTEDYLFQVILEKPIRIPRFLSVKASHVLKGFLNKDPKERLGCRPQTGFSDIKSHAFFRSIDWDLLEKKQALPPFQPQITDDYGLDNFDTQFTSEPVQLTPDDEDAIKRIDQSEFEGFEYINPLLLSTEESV
Method in brief: as §1

[3] = molecular target: T2, CHK1(h) (Homo sapiens, UniProt O14757)
T2 sequence (O14757 1-476): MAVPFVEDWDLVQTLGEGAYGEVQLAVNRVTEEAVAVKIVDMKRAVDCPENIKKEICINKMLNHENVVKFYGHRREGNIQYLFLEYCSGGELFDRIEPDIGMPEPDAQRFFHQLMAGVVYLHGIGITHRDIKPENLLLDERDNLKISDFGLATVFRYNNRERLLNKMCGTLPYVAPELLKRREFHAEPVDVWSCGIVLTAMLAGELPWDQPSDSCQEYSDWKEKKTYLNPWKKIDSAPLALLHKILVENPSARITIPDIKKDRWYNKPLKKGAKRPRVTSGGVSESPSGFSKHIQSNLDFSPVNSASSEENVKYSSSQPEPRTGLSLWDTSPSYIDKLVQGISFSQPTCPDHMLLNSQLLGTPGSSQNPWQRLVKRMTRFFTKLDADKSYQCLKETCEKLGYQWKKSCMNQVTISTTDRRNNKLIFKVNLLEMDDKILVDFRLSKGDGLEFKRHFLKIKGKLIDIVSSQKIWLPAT
Method in brief: as §1

[4] = molecular target: Ret(V804M)(h) (Homo sapiens, UniProt P07949, V804M)
Method in brief: as §1

[5] = molecular target: T3, MLK1(h) (Homo sapiens, UniProt P80192)
T3 construct: purchased Millipore
Method in brief: as §1

[6] = molecular target: CDK5/p35(h) (Homo sapiens, UniProt Q00535)
Method in brief: as §1

[7] = molecular target: T4, Met(D1246N)(h) (Homo sapiens, UniProt P08581, D1228N)
T4 construct: purchased Millipore
Method in brief: as §1

[8] = molecular target: AMPKα1(h) (Homo sapiens, UniProt Q13131)
Method in brief: as §1

[9] = molecular target: EphA2(h) (Homo sapiens, UniProt P29317)
Method in brief: as §1

[10] = molecular target: Fms(Y969C)(h) (Homo sapiens, UniProt P07333, Y969C)
Method in brief: as §1

[11] = molecular target: ErbB4(h) (Homo sapiens, UniProt Q15303)
Method in brief: as §1

[12] = molecular target: T5, PAK4(h) (Homo sapiens, UniProt O96013)
T5 construct: purchased Millipore
Method in brief: as §1

[13] = molecular target: cSRC(h) (Homo sapiens, UniProt P12931)
Method in brief: as §1

[14] = molecular target: T6, Met(Y1248D)(h) (Homo sapiens, UniProt P08581, Y1230D)
T6 construct: purchased Millipore
Method in brief: as §1

[15] = molecular target: T7, Bmx(h) (Homo sapiens, UniProt P51813)
T7 sequence (P51813 1-675): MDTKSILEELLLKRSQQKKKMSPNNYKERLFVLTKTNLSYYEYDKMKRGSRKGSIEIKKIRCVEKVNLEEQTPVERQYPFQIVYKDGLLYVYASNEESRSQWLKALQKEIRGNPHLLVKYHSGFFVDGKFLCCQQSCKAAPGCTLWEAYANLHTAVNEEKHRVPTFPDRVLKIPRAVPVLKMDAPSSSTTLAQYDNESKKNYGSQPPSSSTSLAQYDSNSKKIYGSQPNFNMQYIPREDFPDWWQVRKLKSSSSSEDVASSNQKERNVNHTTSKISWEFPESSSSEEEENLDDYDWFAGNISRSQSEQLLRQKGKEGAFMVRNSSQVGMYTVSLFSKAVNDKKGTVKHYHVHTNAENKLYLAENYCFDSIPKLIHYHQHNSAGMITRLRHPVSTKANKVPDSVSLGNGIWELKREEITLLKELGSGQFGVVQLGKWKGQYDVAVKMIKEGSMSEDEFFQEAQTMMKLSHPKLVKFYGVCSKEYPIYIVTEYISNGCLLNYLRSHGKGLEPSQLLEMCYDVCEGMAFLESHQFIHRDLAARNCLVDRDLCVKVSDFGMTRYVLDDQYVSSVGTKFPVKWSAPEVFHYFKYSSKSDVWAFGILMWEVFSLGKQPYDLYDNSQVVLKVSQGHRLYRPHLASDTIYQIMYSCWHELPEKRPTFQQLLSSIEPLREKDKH
Method in brief: as §1

[16] = molecular target: T8, MAPK1(h) (Homo sapiens, UniProt P27361)
T8 construct: purchased Millipore
Method in brief: as §1

Sequence of CDK5/p35(h) (Q00535 whole entry): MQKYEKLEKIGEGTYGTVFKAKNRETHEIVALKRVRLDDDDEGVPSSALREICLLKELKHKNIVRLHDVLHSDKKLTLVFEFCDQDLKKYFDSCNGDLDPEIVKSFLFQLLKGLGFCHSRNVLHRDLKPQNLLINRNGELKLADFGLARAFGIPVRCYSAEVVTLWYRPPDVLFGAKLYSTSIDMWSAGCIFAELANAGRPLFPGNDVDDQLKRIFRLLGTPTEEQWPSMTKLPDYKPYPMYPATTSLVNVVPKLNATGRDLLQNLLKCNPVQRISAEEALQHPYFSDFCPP
Sequence of CDK5/p35(h) (Q15078 whole entry partner): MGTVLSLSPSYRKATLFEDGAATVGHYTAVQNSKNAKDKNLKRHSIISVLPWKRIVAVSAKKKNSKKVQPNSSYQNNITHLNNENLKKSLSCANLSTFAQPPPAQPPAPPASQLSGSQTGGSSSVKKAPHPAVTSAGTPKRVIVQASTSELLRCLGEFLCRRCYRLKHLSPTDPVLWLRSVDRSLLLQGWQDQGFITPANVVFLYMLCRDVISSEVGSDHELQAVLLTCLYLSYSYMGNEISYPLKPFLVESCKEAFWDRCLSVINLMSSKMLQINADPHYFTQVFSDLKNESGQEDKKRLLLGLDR
T3 sequence (P80192 whole entry): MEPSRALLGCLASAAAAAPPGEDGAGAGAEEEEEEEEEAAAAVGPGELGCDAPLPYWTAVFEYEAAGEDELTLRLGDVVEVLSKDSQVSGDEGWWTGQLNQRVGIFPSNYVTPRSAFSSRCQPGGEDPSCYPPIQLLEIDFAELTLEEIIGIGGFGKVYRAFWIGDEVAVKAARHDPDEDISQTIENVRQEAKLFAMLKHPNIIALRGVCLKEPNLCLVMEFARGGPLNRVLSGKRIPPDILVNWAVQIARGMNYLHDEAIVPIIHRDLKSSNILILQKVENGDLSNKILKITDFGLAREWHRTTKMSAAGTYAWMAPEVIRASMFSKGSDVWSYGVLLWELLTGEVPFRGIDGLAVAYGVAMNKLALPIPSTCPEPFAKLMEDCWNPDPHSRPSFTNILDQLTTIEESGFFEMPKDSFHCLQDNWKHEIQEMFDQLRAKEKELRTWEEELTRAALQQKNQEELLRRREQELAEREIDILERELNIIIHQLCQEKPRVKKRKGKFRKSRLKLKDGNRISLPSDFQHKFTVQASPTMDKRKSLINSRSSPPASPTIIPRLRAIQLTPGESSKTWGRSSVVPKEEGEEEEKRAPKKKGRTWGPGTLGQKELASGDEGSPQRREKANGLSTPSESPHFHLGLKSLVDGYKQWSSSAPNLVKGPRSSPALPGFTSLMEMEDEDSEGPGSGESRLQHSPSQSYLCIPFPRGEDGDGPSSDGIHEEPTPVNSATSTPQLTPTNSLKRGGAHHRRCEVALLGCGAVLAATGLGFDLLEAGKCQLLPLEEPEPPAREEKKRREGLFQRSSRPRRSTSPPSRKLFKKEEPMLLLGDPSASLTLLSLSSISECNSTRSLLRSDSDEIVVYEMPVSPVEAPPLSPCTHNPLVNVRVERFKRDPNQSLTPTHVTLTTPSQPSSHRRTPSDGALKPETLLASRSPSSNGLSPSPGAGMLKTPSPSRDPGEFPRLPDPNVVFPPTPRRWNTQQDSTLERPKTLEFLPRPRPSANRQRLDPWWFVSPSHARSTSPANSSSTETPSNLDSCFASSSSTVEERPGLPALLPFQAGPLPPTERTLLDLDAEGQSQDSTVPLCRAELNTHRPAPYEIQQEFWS
T8 sequence (P27361 whole entry): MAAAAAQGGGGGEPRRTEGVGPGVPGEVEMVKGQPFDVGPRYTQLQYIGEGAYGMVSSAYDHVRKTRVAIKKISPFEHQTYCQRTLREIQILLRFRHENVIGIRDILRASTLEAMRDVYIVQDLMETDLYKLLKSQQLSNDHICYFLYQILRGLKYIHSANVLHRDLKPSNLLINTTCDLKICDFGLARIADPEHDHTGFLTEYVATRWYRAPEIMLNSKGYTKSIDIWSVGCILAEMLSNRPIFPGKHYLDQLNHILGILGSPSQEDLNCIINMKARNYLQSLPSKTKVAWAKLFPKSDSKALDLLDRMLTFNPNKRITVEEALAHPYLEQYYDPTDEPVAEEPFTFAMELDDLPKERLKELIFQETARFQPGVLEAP
T5 sequence (O96013 whole entry): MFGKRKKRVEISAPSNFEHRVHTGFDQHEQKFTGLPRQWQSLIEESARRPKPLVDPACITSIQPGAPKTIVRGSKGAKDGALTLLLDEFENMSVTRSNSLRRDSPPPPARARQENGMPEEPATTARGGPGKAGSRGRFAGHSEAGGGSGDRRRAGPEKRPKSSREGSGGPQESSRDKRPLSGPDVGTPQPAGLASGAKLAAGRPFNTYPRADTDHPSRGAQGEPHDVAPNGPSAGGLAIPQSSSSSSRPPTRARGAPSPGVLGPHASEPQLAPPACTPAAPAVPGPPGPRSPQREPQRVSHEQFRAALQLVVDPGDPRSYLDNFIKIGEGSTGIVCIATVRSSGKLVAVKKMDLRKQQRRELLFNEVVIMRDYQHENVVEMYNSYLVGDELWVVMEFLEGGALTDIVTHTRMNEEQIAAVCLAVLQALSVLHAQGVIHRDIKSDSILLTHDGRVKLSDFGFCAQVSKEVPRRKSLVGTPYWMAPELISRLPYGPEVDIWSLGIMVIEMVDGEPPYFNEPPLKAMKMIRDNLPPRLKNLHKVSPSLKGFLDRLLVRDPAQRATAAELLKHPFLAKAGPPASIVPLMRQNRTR
Sequence of ErbB4(h) (Q15303 26-1308): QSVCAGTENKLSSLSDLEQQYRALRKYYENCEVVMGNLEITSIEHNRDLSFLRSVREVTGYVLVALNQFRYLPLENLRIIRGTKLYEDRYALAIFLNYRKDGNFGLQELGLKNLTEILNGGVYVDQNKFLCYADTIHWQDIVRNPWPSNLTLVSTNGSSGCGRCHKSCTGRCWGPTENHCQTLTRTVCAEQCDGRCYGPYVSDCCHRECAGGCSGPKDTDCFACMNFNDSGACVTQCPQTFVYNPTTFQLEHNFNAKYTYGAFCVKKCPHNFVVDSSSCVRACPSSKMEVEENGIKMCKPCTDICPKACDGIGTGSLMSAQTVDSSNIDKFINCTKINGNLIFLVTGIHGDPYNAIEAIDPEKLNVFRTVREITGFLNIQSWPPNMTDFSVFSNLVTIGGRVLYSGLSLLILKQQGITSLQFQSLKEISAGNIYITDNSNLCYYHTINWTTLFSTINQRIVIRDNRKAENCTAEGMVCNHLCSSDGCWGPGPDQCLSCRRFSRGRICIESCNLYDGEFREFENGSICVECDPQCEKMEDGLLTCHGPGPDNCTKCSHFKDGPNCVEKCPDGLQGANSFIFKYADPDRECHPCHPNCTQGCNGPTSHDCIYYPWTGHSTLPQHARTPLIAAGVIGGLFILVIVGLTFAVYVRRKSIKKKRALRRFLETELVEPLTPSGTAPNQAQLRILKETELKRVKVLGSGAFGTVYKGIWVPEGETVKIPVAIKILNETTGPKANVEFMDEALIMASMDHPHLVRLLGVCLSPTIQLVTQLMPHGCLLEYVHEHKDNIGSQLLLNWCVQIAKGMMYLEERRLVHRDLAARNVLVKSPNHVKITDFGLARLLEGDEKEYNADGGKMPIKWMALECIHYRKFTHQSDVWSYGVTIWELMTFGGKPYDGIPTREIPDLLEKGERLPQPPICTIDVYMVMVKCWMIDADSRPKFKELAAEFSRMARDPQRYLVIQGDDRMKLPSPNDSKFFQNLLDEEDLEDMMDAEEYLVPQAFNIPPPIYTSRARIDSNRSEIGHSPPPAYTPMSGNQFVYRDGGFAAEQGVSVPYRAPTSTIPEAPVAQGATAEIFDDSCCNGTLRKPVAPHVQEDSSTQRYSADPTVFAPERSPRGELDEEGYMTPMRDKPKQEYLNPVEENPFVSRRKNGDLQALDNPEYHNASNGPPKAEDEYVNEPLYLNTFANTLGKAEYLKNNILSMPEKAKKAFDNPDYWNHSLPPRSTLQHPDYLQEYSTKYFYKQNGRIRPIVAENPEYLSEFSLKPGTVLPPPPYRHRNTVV

Row | Sequence | % activity [1] [%] | % activity [2] [%] | % activity [3] [%] | % activity [4] [%] | % activity [5] [%] | % activity [6] [%] | % activity [7] [%] | % activity [8] [%] | % activity [9] [%] | % activity [10] [%] | % activity [11] [%] | % activity [12] [%] | % activity [13] [%] | % activity [14] [%] | % activity [15] [%] | % activity [16] [%]
1 | FAKLAARLYRKALARQLGVAA [MMI-0300] | 91 | 81 | 91 | 95 | 40 | 79 | 82 | 71 | 31 | 72 | 40 | 94 | 26 | – | – | –
2 | HRRIKAWLKKIKALARQLGVAA (Mammal) [MMI-0500] | 43 | 7 | 65 | 36 | 43 | 59 | 90 | 35 | – | – | 2 | 86 | 30 | 218 | 45 | –
3 | KAFAKLAARLYRKALARQLGVAA [MMI-0400] | 43 | 75 | 87 | 87 | 33 | 76 | 31 | 87 | 17 | 91 | 0 | 89 | 14 | 31 | 26 | 100
4 | YARAAARQARAKALARQLGVAA [MMI-0100] | – | 82 | – | 92 | 77 | – | – | – | – | 126 | 73 | 92 | – | 87 | 62 | 108
5 | YARAAARQARAKALNRQLGVA (Mammal) [MMI-0200] | – | 98 | – | – | 84 | 92 | 149 | 108 | 95 | 88 | 82 | 98 | 32 | 118 | 76 | 97
